Read-outs that look alike come from different tables or passages of the source.
Legend:
DIP-α (D. melanogaster) [1] = target: DIP-α (D. melanogaster) (UniProt Q9W4R3); test: SPR
[2] = target: DIP-α K81Q G74S (D. melanogaster) (UniProt Q9W4R3); test: AUC
DIP-β (D. melanogaster) = test: SPR
[3] = target: DIP-α K81Q (D. melanogaster) (UniProt Q9W4R3); test: SPR
[4] = target: DIP-α K81Q G74S (D. melanogaster) (UniProt Q9W4R3); test: SPR
[5] = target: DIP-α G74A (D. melanogaster) (UniProt Q9W4R3); test: SPR
DIP-γ (D. melanogaster) = test: SPR
[6] = target: DIP-α G74A (D. melanogaster) (UniProt Q9W4R3); test: AUC
[7] = target: DIP-α K81Q (D. melanogaster) (UniProt Q9W4R3); test: AUC
DIP-α (D. melanogaster) [8] = target: DIP-α (D. melanogaster) (UniProt Q9W4R3); test: SPR; remark: listed apart in the source

Which Kd (DIP-α (D. melanogaster) [1]) does the source give for “Dpr10 V144K Q142E G99D (from UniProt Q9VT83 1-408) (natural protein)” here?
Its Kd is 50 µM.

For “DIP-α K81Q G74S (from UniProt Q9W4R3 1-554) (natural protein)”, which Kd [2] is on record?
Its Kd is 46 µM.

And the stoichiometry N [2]?
The stoichiometry N was 2.

How did the Kd (DIP-β (D. melanogaster)) turn out when “Dpr10 (from UniProt Q9VT83 1-408) (natural protein)” was run?
Its Kd is 33 µM.

What about the Kd [3] of the same substance?
Its Kd is 31.8 µM.

And the Kd [4]?
The Kd was 68 µM.

And the Kd [5]?
The Kd was 0.9 µM.

What about the Kd (DIP-γ (D. melanogaster)) of the same substance?
The Kd was greater than 1000 µM.

Which results are given for “Dpr10 Q142M (from UniProt Q9VT83 1-408) (natural protein)”?
Kd (DIP-α (D. melanogaster) [1]): 0.19 µM; Kd [5]: 0.1 µM

Which Kd [6] does the source give for “DIP-α G74A (from UniProt Q9W4R3 1-554) (natural protein)” here?
The Kd was 50 µM.

What about the stoichiometry N [6] of the same substance?
The stoichiometry N was 2.

With “Dpr10 V144K (from UniProt Q9VT83 1-408) (natural protein)” as the substance, how does the Kd (DIP-α (D. melanogaster) [1]) read?
The Kd was 11.3 µM.

Which Kd [7] does the source give for “DIP-α K81Q (from UniProt Q9W4R3 1-554) (natural protein)” here?
Its Kd is 19.6 µM.

What about the stoichiometry N [7] of the same substance?
The stoichiometry N was 2.

Which Kd (DIP-α (D. melanogaster) [1]) does the source give for “Dpr10 Q138D (from UniProt Q9VT83 1-408) (natural protein)” here?
Its Kd is 27.6 µM.

And the Kd (DIP-α (D. melanogaster) [8])?
Its Kd is 27.8 µM.
